Results reported in article PMC5520056, “Cryo-EM structures of the ATP-bound Vps4^E233Q hexamer and its complex with Vta1 at near-atomic resolution” (Nature Communications, 2017).

B1: Vps4^E233Q (full-length yeast Vps4 containing an mutation) [Saccharomyces cerevisiae] / itself (parent)
chain: MSTGDFLTKGIELVQKAIDLDTATQYEEAYTAYYNGLDYLMLALKYEKNPKSKDLIRAKFTEYLNRAEQLKKHLESEEANAAKKSPSAGSGSNGGNKKISQEEGEDNGGEDNKKLRGALSSAILSEKPNVKWEDVAGLEGAKEALKEAVILPVKFPHLFKGNRKPTSGILLYGPPGTGKSYLAKAVATEANSTFFSVSSSDLVSKWMGESEKLVKQLFAMARENKPSIIFIDQVDALTGTRGEGESEASRRIKTELLVQMNGVGNDSQGVLVLGATNIPWQLDSAIRRRFERRIYIPLPDLAARTTMFEINVGDTPCVLTKEDYRTLGAMTEGYSGSDIAVVVKDALMQPIRKIQSATHFKDVSTEDDETRKLTPCSPGDDGAIEMSWTDIEADELKEPDLTIKDFLKAIKSTRPTVNEDDLLKQEQFTRDFGQEGN

Variants of: B1
Assay: SEC
Details: with itself; in the presence of ATP; height of the peak at the hexamer elution position (~12.5 ml); read off a plot

| response [mAU] | Variant |
| --- | --- |
| 42 | chain 1 D431A |

Same assay, conditions: with itself; in the presence of ATP; height of the peak at the hexamer elution position (~12 ml); read off a plot

| response [mAU] | Variant |
| --- | --- |
| 65 | chain 1 L396A |
| 88 | chain 1 K215A |

Same assay, conditions: with itself; in the presence of ATP; height of the broad peak at the hexamer elution position (~12 ml); read off a plot

| response [mAU] | Variant |
| --- | --- |
| 44 | chain 1 K154A F155A |

Same assay, conditions: with itself; height of the peak at the hexamer elution position (~12 ml); read off a plot

| response [mAU] | Variant |
| --- | --- |
| 13 | chain 1 R289A |

Same assay, conditions: with itself; in the presence of ATP; height of the broad peak at the hexamer elution position (~11.5-12 ml); read off a plot

| response [mAU] | Variant |
| --- | --- |
| 72 | chain 1 E247A |
